Measured values as given in patent US20210324374, “COMPOSITIONS AND METHODS FOR SCREENING APTAMERS” (Chan Zuckerberg Biohub, Inc., published 2021).

Target: VEGF (vascular endothelial growth factor) (UniProt P15692-4 P15692-4:27-191)
Assay: N2A2 flow-cell fluorescence, natural DNA
Settings: tags: Dylight 650 NHS labelled; R&D Systems; chain copies: 2
Text: We used N2A2 to measure the VEGF binding affinity of all sequences in these pools simultaneously. We performed three separate experiments: 1) VEGF binding to the natural DNA pools, 2) VEGF binding to non-natural DNA modified with tryptophan, and 3) VEGF binding to non-natural DNA modified with tyrosine. In addition to the six aptamer pools described above (R0-R5), we included three other DNA sequences on the flow cell for each experiment: (1) a known “fiducial mark” sequence with a fluorescently-labeled complement for intensity calibration, (2) a “positive control” sequence based on a published aptamer known to bind to VEGF, and (3) a “negative control” sequence known not to bind to VEGF. The same input DNA stocks and labeled VEGF protein were used for all three experiments, but new sequencing cartridges and flow cells were used for each separate experiment. Other details of experimental setup of the sequencing cartridge, protein titrations, and software and hardware modifications have previously been described in the provided grant document and manuscript. VEGF protein was labeled with Dylight647 fluorophore to enable imaging on the N2A2.

VEGF (vascular endothelial growth factor), sequence (P15692 other isoform, or with tags, fused parts or gaps): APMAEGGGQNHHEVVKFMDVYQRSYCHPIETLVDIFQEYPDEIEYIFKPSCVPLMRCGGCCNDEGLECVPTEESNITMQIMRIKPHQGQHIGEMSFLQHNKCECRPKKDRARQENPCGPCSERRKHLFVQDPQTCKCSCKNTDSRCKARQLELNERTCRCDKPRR

B1: K SL2-B positive control (ssDNA)
DNA: AGCAGCACAGAGGTCAGATGAATTGGGCCCGTCCGTATGGTGGGTCCTATGCGTGCTACCGTGAA
Q: Does B1 bind?
A: Result: binds
